The data set concerns the molecule itself. The data set is described as follows: negative-stain electron microscopy; 0.2 mg/mL, incubated 30 min at 37 °C in 20 mM Tris-HCl pH 7.5, 100 mM NaCl, 1 mM EDTA; 1% uranyl acetate; preparations from cortex, from nucleus and from Sigma; 12–14 nm particles used for 3D reconstruction.

B1: native α-crystallin from bovine eye lens (complex)
chain 1: MDIAIQHPWFKRTLGPFYPSRLFDQFFGEGLFEYDLLPFLSSTISPYYRQSLFRTVLDSGISEVRSDRDKFVIFLDVKHFSPEDLTVKVQEDFVEIHGKHNERQDDHGYISREFHRRYRLPSNVDQSALSCSLSADGMLTFSGPKIPSGVDAGHSERAIPVSREEKPSSAPSS
chain 2: MDIAIHHPWIRRPFFPFHSPSRLFDQFFGEHLLESDLFPASTSLSPFYLRPPSFLRAPSWIDTGLSEMRLEKDRFSVNLDVKHFSPEELKVKVLGDVIEVHGKHEERQDEHGFISREFHRKYRIPADVDPLAITSSLSSDGVLTVNGPRKQASGPERTIPITREEKPAVTAAPKK
notes: αA-crystallin (HSPB4), bovine, isolated from eye lens as part of native α-crystallin; αB-crystallin (HSPB5), bovine, isolated from eye lens as part of native α-crystallin; Hetero-oligomeric mixture of αA- and αB-crystallin that was not separated; The number of subunits and the αA:αB ratio were not measured here (3:1 and about 42 monomers are cited); also called natural α-crystallin; authentic …
For the protein B1, the binding result was “binds”.

The values are drawn from publication PMC7235859, “Structural and Functional Peculiarities of α-Crystallin” (Biology, 2020).
